Results on one substance are retold here after patent US7754855.

In the assay the target is rabbit GH receptor (rabbit) (UniProt P19941). In words: cell-based or functional assay.
UniProt P19941, sequence (P19941 19-638): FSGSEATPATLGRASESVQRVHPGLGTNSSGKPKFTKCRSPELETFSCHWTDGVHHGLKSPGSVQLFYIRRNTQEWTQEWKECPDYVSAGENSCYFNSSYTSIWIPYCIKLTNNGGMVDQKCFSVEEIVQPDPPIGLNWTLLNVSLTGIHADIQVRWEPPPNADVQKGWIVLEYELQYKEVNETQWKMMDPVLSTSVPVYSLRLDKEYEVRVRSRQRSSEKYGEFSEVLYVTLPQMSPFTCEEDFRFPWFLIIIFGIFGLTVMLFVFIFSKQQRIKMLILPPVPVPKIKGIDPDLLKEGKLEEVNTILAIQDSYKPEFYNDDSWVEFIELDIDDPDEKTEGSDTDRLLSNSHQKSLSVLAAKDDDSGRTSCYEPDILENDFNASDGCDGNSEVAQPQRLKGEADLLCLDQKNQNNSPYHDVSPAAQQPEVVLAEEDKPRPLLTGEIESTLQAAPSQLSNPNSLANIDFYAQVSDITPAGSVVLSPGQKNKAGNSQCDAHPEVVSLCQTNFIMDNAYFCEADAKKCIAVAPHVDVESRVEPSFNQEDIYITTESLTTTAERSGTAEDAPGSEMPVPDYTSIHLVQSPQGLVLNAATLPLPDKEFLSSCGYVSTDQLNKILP

For “human pituitary GH standard (from UniProt P01241 27-217) (ligand)”, the Mean EC50 (nM), proliferation of GH-R4 cells amounted to 0.036 nM and the Mean EC50 (ng/ml), proliferation of GH-R4 cells is 0.8 ng/mL.
